Assay in all cases: purified protein
Substrate in data set [1]: C/C(C=O)=C\CC/C(C)=C/C=O
It is filed as biochemical, Coccomyxa subellipsoidea. The note with it: 250 μM NADPH, 50 mM HEPES/NaOH pH 7.0, 100 mM NaCl, 25 °C, 0.1% tetrahydrofuran.

Substrate in data set [2]: CC(=O)[C@H]1CC[C@H]2[C@@H]3CCC4=CC(=O)CC[C@]4(C)[C@H]3CC[C@]12C
It is filed as biochemical, Coccomyxa subellipsoidea. The note with it: 250 μM NADPH, 50 mM HEPES/NaOH pH 7.0, 100 mM NaCl, 25 °C, 1.5% ethanol.

Substrate in data set [3]: C/C(C=O)=C\CC/C(C)=C/C=O
It is filed as biochemical, Catharanthus roseus. The note with it: 250 μM NADPH, 50 mM HEPES/NaOH pH 7.0, 100 mM NaCl, 25 °C, 0.1% tetrahydrofuran.

Substrate in data set [4]: CC(=O)[C@H]1CC[C@H]2[C@@H]3CCC4=CC(=O)CC[C@]4(C)[C@H]3CC[C@]12C
The following applies: 250 μM NADPH, 50 mM HEPES/NaOH pH 7.0, 100 mM NaCl, 25 °C, 1.5% ethanol.

Substrate in data set [5]: C/C(C=O)=C\CC/C(C)=C/C=O
The note with it: 250 μM NADPH, 50 mM HEPES/NaOH pH 7.0, 100 mM NaCl, 25 °C, 0.1% tetrahydrofuran.

B1: Coccomyxa subellipsoidea PRISE (Coccomyxa subellipsoidea C-169) (protein)
chain: GYVALIAGVTGVTGRNLALHLQNCDRWDAVYGGSRRPCGLGGKVKDLRMDLDNKTSLVDTLKGAQDVTHLFFCAYRPTESAATDVTTNFGMFKNVIEAGEGAGLKLKHVSFLSGTKWYGVHIGPVKTPSREDDPRAMSPNFYYDMEDYCIARVTKGADWTWSSVRPNPVCGFSTGSAMNLTMTIAVYASICKELGLPFRFPGSPQAYNVLLEVVDADLLACSMEYISTQPHAGNTSYNVSNGDVFRWSEVWPKLAAFFELPLAEPQKFSMTTMLAYHECVWQKLVEKHGLSKEVASYKDVATWGFGDWVFGQEKDWFSDVNKLRRTGFQEQNLDSAEMFLRQFKELRAAKLIP
notes: full-length synthetic gene in pOPINF, N-terminal His6 tag (no cleavage told), E. coli
Regarding B1, in “purified protein [1]”, the Km (in general, the concentration of substrate that gives half-maximal velocity) came out at 7.0 ± 1.6 µM; the kcat (as a rule, the maximal rate divided by the concentration of active sites) came out at 0.025 ± 0.001 s⁻¹; the kcat/Km (in general, the turnover number divided by the Michaelis constant) was determined as 3580 M⁻¹ s⁻¹. In the data set “purified protein [2]”, the Km was determined as 23.6 ± 5.8 µM.

B2: Catharanthus roseus 5 (PRISE5, ISY) (Catharanthus roseus) (protein)
chain: MSWWWKRSIGAGKNLPNQNKENGVCKSYKSVALVVGVTGIVGSSLAEVLKLPDTPGGPWKVYGVARRPCPVWLAKKPVEYIQCDVSDNQETISKLSPLKDITHIFYVSWIGSEDCQTNATMFKNILNSVIPNASNLQHVCLQTGIKHYFGIFEEGSKVVPHDSPFTEDLPRLNVPNFYHDLEDILYEETGKNNLTWSVHRPALVFGFSPCSMMNIVSTLCVYATICKHENKALVYPGSKNSWNCYADAVDADLVAEHEIWAAVDPKAKNQVLNCNNGDVFKWKHIWKKLAEEFGIEMVGYVEGKEQVSLAELMKDKDQVWDEIVKKNNLVPTKLKEIAAFWFADIAFCSENLISSMNKSKELGFLGFRNSMKSFVSCIDKMRDYRFIP
notes: codon-optimized gene from earlier study in pOPINF, N-terminal His6 tag (no cleavage told), E. coli
Regarding B2, the Km in the data set “purified protein [3]” is 8.5 ± 1.5 µM.

B3: Arabidopsis thaliana 2 (PRISE2) (Arabidopsis thaliana) (protein)
chain: GSENGSLMRRNEVDENVALIFGVTGLVGREIVKTLLMSKPGWRIYGVARNPEINSMTKMYNFISCDLLNASETKQRLSPLQDIVSHVFWVTWSGEFPLDTDECCVQNKTMLMNALDAILPNAKRLKHFSLQTGMKHYVSLVEETMARGEGSSLYYYSEECPRKSSGKNFYYVLEDLLKEKITRSSVVWSVQRPGLLMGSSSRTLYNFMGSLCVYGAMCKYLNLPFVFGGTRECWEESYIDGSDSNLVAEQHIFAATSGKVREKGEAFNAINGVGFTWKEIWPEIGKKLGVQVNETTMFDEGFWFGREMVERKHVWDEIVVKEKLVRTEIEDLANWYFLDALFRCPFKLLGKREKVDRFGFKRKYRTLDSVLYWIDVMRDEKLIPL
With B3, the Km in “purified protein [4]” is 5.7 ± 2.3 µM.

B4: Arabidopsis thaliana 1 (PRISE1) (Arabidopsis thaliana) (protein)
chain: SWWWAGAIGAAKKKLDEDEPSQSFESVALIIGVTGIVGNSLAEILPLSDTPGGPWKVYGVARRPRPTWNADHPIDYIQCDVSDAEDTRSKLSPLTDVTHVFYVTWTNRESESENCEANGSMLRNVLQAIIPYAPNLRHVCLQTGTKHYLGPFTNVDGPRHDPPFTEDMPRLQIQNFYYTQEDILFEEIKKIETVTWSIHRPNMIFGFSPYSLMNIVGTLCVYAAICKHEGSPLLFPGSKKAWEGFMTASDADLIAEQQIWAAVDPYAKNEAFNCNNADIFKWKHLWKILAEQFGIEEYGFEEGKNLGLVEMMKGKERVWEEMVKENQLQEKKLEEVGVWWFADVILGVEGMIDSMNKSKEYGFLGFRNSNNSFISWIDKYKAFKIVP
B4: in “purified protein [5]”, the Michaelis-Menten constant (Km) worked out at 41.8 ± 2.75 µM, the kcat is 0.155 ± 0.004 s⁻¹ and the kcat/Km was determined as 3710 M⁻¹ s⁻¹. Further, the Km in “purified protein [4]” is 6.0 ± 2.5 µM.

(Values after publication PMC7467569, “The Progesterone 5β-Reductase/Iridoid Synthase Family: A Catalytic Reservoir for Specialized Metabolism across Land Plants” (ACS Chemical Biology, 2020).)
